This note sets out measurements from patent publication US20240327525A1 (VIB VZW, published 2024).

The labels stand for the following.
B1: humanized variant VHH7h3 (VHH)
VHH: DVQLVESGGGLVQPGGSLRLSCAASGIIFSDNRMDWYRQAPGKQREWVATLASYGWKTYADSVKGRFTISRDNTKNTVYLQMNSLRPEDTAVYYCKASSPVLNDIWGQGTLVTVSS
notes: Made in E. coli, IMAC purified; tag not specified
B2: humanized variant VHH7h1 (VHH)
VHH: B1 VHH with D1E, T74S
notes: as for B1
B3: humanized variant VHH7h2 (VHH)
VHH: B1 VHH with T74S
notes: as for B1
B4: humanized variant VHH8h2 (VHH)
VHH: DVQLVESGGGLVQPGGSLRLSCAASGRTFNTYNWGWFRQAPGKEREFVAAIRWSSSKTSYADSVKGRFTISRDNSKNTVYLQMNSLRPEDTAVYYCAASIVDFTTNPSHFGSWGQGTLVTVSS
notes: as for B1
B5: humanized variant VHH8h1 (VHH)
VHH: B4 VHH with D1E
notes: as for B1
B6: humanized variant VHH8h3 (VHH)
VHH: B4 VHH with P14A
notes: as for B1
B7: anti-CI-M6PR VHH1 (VHH)
VHH: QVQLQESGGGLVQPGGSLRLSCVASGFTFDRYWMNWLRQIPGKEIEWVSTINTGGTGTYYDDSVKGRFSISRDDAKNTLYLTMNSLKTEDTAVYYCARGATYYRGNSAIRGQGTQVTVSS
B8: anti-CI-M6PR VHH5 (VHH)
VHH: QVQLQESGGGLVQAGGSLKLSCAAAGRTFSRLAMGWFRQAPGKEREFVAAISENGDSIHYSDSVKGRFAVSRDNAKNTVYLQMNSLKPEDTAIYYCAADRAAYYCSGSGCYPSRAPAAASYDYWGQGTQVTVSS
B9: anti-CI-M6PR VHH11 (VHH)
VHH: QVQLQESGGGLVQAGDSLKLSCTASGPTFSEITGGWFRQVPGKEREFVASISSTGITTYYTDSVKGRFTVSRDNAKNTMYLQMNSLKPEDTGVYYCAARSTSRSIAITVGYDYWGQGTQVTVSS
modifications: Alexa Fluor 488 NHS ester label on amines
notes: Tag not specified
B10: anti-CI-M6PR VHH2 (VHH)
VHH: QVQLQESGGGLVQPGGSLRLSCVFSGRTFMSYDVGWFRQAPGKERELLSSITSSSSSPYYAESVKGRFAVSRDGAKKTVYLRMNSLEPEDTAVYYCAARENWRNDWQYWGQTQVTVSS
modifications: Alexa Fluor 488 NHS ester label on amines
notes: Tag not specified
B11: anti-CI-M6PR VHH6 (VHH)
VHH: QVQLQESGGGLVQAGGSLRLSCAVSGSISSIGGMGWFRQAPGKQREFVAVILNNSGMTSYADSVKGRFTISRGNSKNTMYLQMNSLKPEDTAVYYCNYSGYWGQGTQVTVSS
modifications: Alexa Fluor 488 NHS ester label on amines
notes: Tag not specified
B12: anti-CI-M6PR VHH3 (VHH)
VHH: QVQLQESGGGLVQPGGSLRLSCAAFGLNFKNFDMIWFRQAPGEERDIVAAISSSSSTIWYEDSVKGRFTISRDNAKNTVYLQMNSLKPEDTAVYYCAAALTSWRRPDYWGQGTQVTVSS
modifications: Alexa Fluor 488 NHS ester label on amines
notes: Tag not specified
B13: anti-CI-M6PR VHH4 (VHH)
VHH: QVQLQESGGGLVQAGGSLRLSCAASGRTFSNYVMGWFRQAPGKEREFVGSISQGGKMTYYPDSVKGRFTISRDNAKNTMYLQMDGLKPEDTAVYYCAVSRGYPMVRVSEVDYWGQGTQVTVSS
modifications: Alexa Fluor 488 NHS ester label on amines
notes: Tag not specified
B14: anti-CI-M6PR VHH10 (VHH)
VHH: QVQLQESGGGSVQAGGSLRLSCAPAGRTFSRIRMGWFRQAPGKEREFVAAISSGGLSYYADSMKGRFTISRDNAKNTVLLQMNSLEPDDTAVYYCAAVLNDYIDDYVARNPTLYDYWGQGTQVTVSS
modifications: Alexa Fluor 488 NHS ester label on amines
notes: Tag not specified
B15: anti-CI-M6PR VHH9 (VHH)
VHH: QVQLQESGGGLVQAGGSLRLSCAASGTILSIKTMGWYRQAPGKEREWVATITSSSIPMYADSVKGRFTISRDDAKNTVYLQMNSLKPEDTGVYYCNAPWTDYWGQGTQVTVSS
modifications: Alexa Fluor 488 NHS ester label on amines
notes: Tag not specified

Changes are numbered by the printed parent chain.

The first experiment concerns the target T1, human CI-M6PR domain1-3His6 (human, UniProt P11717 41-467).
T1 construct: Recombinant, made in HEK293 cells; Biotinylated with NHS-PEG4-biotin for BLI; unlabelled in SEC-MALLS and crystallisation; also called CI-M6PR hDom1-3His6; hDom1-3His6
Description: BLI, association pH 7.4, dissociation at pH 6.0, mean of local fits. The method, then: (§1) FIGS. 9A-9E. […] BLI was performed on an Octet Red96 (FortéBio) instrument in kinetics buffer (0.2 M Na₂HPO₄, 0.1 M Na⁺citrate, 0.01% bovine serum albumin, 0.002% Tween-20). Biotinylated human domain₁₋₃His₆ was immobilized on Streptavidin SA biosensors (Sartorius) to a signal of 0.6 nm. […] Between runs, biosensors were regenerated by three times 10 s exposure to regeneration buffer (10 mM glycine pH 3). The degree of association and dissociation was measured in δ nm over time(s).
(§2) FIGS. 10A-10E. […] BLI was performed on an Octet Red96 (FortéBio) instrument in kinetics buffer (0.2 M Na₂HPO₄, 0.1 M Na⁺citrate, 0.01% bovine serum albumin, 0.002% Tween-20). Biotinylated human domain₁₋₃His₆ was immobilized on Streptavidin SA biosensors (Sartorius) to a signal of 0.6 nm. […] Between assays, biosensors were regenerated by three times 10 s exposure to regeneration buffer (10 mM glycine pH 3). The degree of association and dissociation was measured in δ nm over time(s).
In general terms: In BLI a coated tip is dipped into the sample, and binding shifts an interference pattern.
One may read the koff as the rate constant with which the complex falls apart. Low values mean slow dissociation, high ones fast dissociation. Take B1: the koff stood at 0.013 s⁻¹.

As to B2, the koff was determined as 0.012 s⁻¹.

In the case of B3, the dissociation rate constant (koff) was 0.011 s⁻¹.

On to B4, for which the off-rate constant (koff) was determined as 0.0015 s⁻¹.

Turning to B5, the off-rate constant (koff) turned out to be 0.0015 s⁻¹.

The molecule B6 came in with a koff of 0.002 s⁻¹.

The target in the next experiment is T1, human CI-M6PR domain1-3His6. Description: BLI, association pH 7.4, dissociation at pH 6.5, mean of local fits. The method, then: as §1, §2
B1 returned an off-rate (koff) of 0.011 s⁻¹.

As to B2, the koff was 0.0097 s⁻¹.

With B3, the off-rate constant (koff) stood at 0.0094 s⁻¹.

Consider B4, for which the off-rate (koff) amounted to 0.0011 s⁻¹.

On to B5, for which the koff was determined as 0.00053 s⁻¹.

In the case of B6, the koff came out at 0.0022 s⁻¹.

A further experiment shares this target. The experiment in a line: BLI, biotinylated antigen on SA tips, global 1:1 fit, association at pH 7.4. The method, then: (§3) Biotinylated human domain₁₋₃His₆ was immobilized on Streptavidin SA biosensors (Sartorius) to a signal of 0.6 nm. […] Between runs, biosensors were regenerated by three times 10 s exposure to regeneration buffer (10 mM glycine pH 3). The degree of association and dissociation was measured in δ nm over time(s).
as §2
(§4) After loading, the tips were incubated with VHHs serially diluted in pH 7.4 kinetic buffer during the association phase and dissociation was performed at pH 7.4, pH 6.5, pH 6.0, pH 5.5 and pH 5.0. All biosensor tips were then regenerated before analysis of the subsequent VHH. Table 3 summarizes the kinetic parameters retrieved after processing and curve fitting of the BLI measurements.
The term kon denotes the second-order rate constant of association. Regarding B1, the kon turned out to be 460000 M⁻¹ s⁻¹.

Turning to B2, the on-rate constant (kon) turned out to be 500000 M⁻¹ s⁻¹.

Consider B3, for which the kon amounted to 470000 M⁻¹ s⁻¹.

Regarding B4, the association rate constant (kon) amounted to 220000 M⁻¹ s⁻¹.

In turn, B5 gave a kon of 450000 M⁻¹ s⁻¹.

As to B6, the kon came to 290000 M⁻¹ s⁻¹.

The next experiment concerns the target T2, human cation-independent mannose-6-phosphate receptor on cells (human, UniProt P11717 41-2491). Description: cell-based or functional assay.
In the case of B7, the “internalisation rate (live-cell imaging of AF488-VHH on MCF7 cells)” value is 1.38e+06 summed AF-voxels/minute.

Consider B8, for which the “internalisation rate (live-cell imaging of AF488-VHH on MCF7 cells)” value is 687000 summed AF-voxels/minute.

Another experiment addresses T2, human cation-independent …. Description: live-cell imaging of the uptake of AF488-labelled VHH by MCF7 cells. As to the method:
For live-cell imaging, 2×10⁴ MCF7 cells/well were seeded in OptiMEM medium and incubated the next day with Lyso Tracker Deep Red DND-99 (50 nM, Thermo Fischer, L12492) for 30 minutes at 37° C., 5% CO₂ and washed with OptiMEM after which 7.5 μM AF488 labelled anti-CI-M6PR VHHs (in OptiMEM) were incubated on the cells. For every well (i.e. anti-CI-M6PR VHH), Z-stacks were taken at three different positions every six minutes, for three hours in total. Z-slices (12) were acquired per position at a step size of 1.5 μm and XY pixel size was 275 nm by 275 nm. Excitation and emission wavelengths of the fluorescent compounds used were LTR (λEx: 633 nm and λEm: 665-715 nm), AF488 (λEx: 488 nm and λEm: 520±35 nm), Hoechst/DAPI (λEx: 405 nm and λEm: 420-470 nm).
Turning to B9, the binding result is given as “no binding (tested: 7.5 µM)”.

As for B10, the binding result was “no binding (tested: 7.5 µM)”.

In the case of B11, the binding result was “no binding (tested: 7.5 µM)”.

Turning to B12, the binding result is given as “no binding (tested: 7.5 µM)”.

As to B13, the binding result is listed as “no binding (tested: 7.5 µM)”.

In the case of B14, the binding result is reported as “no binding (tested: 7.5 µM)”.

On to B15, for which the binding result is “no binding (tested: 7.5 µM)”.

Another experiment deals with T1, human CI-M6PR domain1-3His6. Description: BLI, biotinylated antigen on SA tips, global 1:1 fit, dissociation at pH 7.4. As to the method:
as §3, §2, §4
What is called Kd is the constant that tells how readily two partners part at equilibrium. A lower Kd goes with tighter binding. The molecule B1 had a dissociation constant (Kd) of 14 nM and a dissociation rate constant (koff) of 0.0064 s⁻¹.

Molecule B2 had a dissociation constant Kd of 14.1 nM and a dissociation rate constant (koff) of 0.0071 s⁻¹.

Take B3: the Kd was determined as 13.6 nM and the off-rate constant (koff) came to 0.0064 s⁻¹.

B4 registered a dissociation constant Kd of 3.07 nM and a dissociation rate constant (koff) of 0.00067 s⁻¹.

B5: binding was put at a Kd of 1.06 nM and the off-rate constant (koff) worked out at 0.00048 s⁻¹.

B6 came in with a Kd of 1.76 nM and a dissociation rate constant (koff) of 0.00051 s⁻¹.

The target is the same in the next experiment. The experiment in a line: BLI, association pH 7.4, dissociation at pH 5.5, mean of local fits. The method, then:
as §1, §2
Regarding B1, the koff was found to be 0.015 s⁻¹.

Molecule B2 came in with a koff of 0.014 s⁻¹.

As for B3, the koff turned out to be 0.014 s⁻¹.

The molecule B4 gave an off-rate constant (koff) of 0.0044 s⁻¹.

B5 had a koff of 0.0043 s⁻¹.

B6 returned a koff of 0.0041 s⁻¹.

Another experiment has the same target. The experiment in a line: BLI, association pH 7.4, dissociation at pH 5.0, mean of local fits. The method, then: as §1, §2
For B1, the off-rate (koff) turned out to be 0.019 s⁻¹.

As to B2, the off-rate (koff) amounted to 0.02 s⁻¹.

As to B3, the koff is 0.019 s⁻¹.

For the molecule B4, the koff came to 0.041 s⁻¹.

B5 displayed a dissociation rate constant (koff) of 0.029 s⁻¹.

Turning to B6, the dissociation rate constant (koff) was found to be 0.033 s⁻¹.
